Experimental data as given in the supplement of paper PMC12042874.
± gives the uncertainty stated by the source.

test: amyloid nucleation score (Sup35N fusion, yeast selection) (log enrichment); library NNK3; higher = more nucleation; inactive = no reads after selection
Procedure, shortened: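 Peptides of 20 random codons, each fused to Sup35N, were expressed in psi-negative yeast. Cells were induced with 100 μM copper sulfate for 24 hours and grown 7 days at 30°C on medium lacking adenine and uracil, and plasmid inserts before and after selection were Illumina-sequenced. Nucleation scores are DiMSum log enrichments of output over input reads, centred on the mode score of non-aggregating sequences, and sequences under 100 input reads were excluded.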

Substance	amyloid nucleation score
YCSCNEGGLDPSLTMTL	inactive
YLSVPVF	inactive
KIRIGW	inactive
CYNQRGCTIGILQFLPRPVW	inactive
NMRVCCIGNSFSMGYLICWY	2.47 ± 0.057
NVYVSSRVYISK	2.88 ± 0.06
CSFRIMGDQMIGKTCCRFGH	inactive
ANAISWGYLIKDYS	inactive
DEIACPYSAWLRMSMPEARS	inactive
RTSLNGTLGVLSRYGWNISE	inactive
VIMADA	inactive
ACSDFSE	inactive
GHFGVLMSGSTGGNLANQSG	inactive
PKCRMSMA	inactive
LTQMCFTTSVFLRLAWVPFK	inactive
YTRNKQDIWGGNHGSRCQNG	inactive
MCLYQGESRYGSYLYFTDIN	inactive
SGSKR	inactive
NYAYTVMGGTIYRLWGRVMR	inactive
NHFFALSLVII	inactive
IMYFMLMLGSSRMSFTKLMG	inactive
GKSLMK	inactive
QRMTLNLDRCPMSYWGSTIP	inactive
LSYKIIYTGIGCEYAYGFIE	inactive
INGDMFSSFENVCYYEVSSL	-0.325 ± 0.3
RLKMGLSN	-0.846 ± 0.8
LIRAVGFGGWILIAHWYIWN	inactive

Substance	amyloid nucleation score
WVCTYLTRFGRITGALRMDV	inactive
AKCMSDFVECRKSRRMMAGW	inactive
FSLFFLCIFFDNRTKFMCLA	inactive
KCSFFMFAVEKEAKNWMVTN	inactive
CSGLCGFSQ	inactive
VPLTRSKYYFRSWRWIDCGG	inactive
TCWCGVRIFFGPQLASSVWL	inactive
YLIGLRCWCSL	inactive
ISLFDNNLRGWMYGVFRSIA	inactive
NRATVYMTQAKGCCSALFQV	0.315 ± 0.3
TERESMCFLYWVSRRHYTGN	-0.541 ± 0.55
SSKSSRLNMTVFSKTVMTIM	inactive
MGMEIEQYNFTALLRD	inactive
VINSR	inactive
GVFMLVSNFASNWAT	inactive
MRHVCSCFRNDHGIDGVF	0.06 ± 0.44
LDHYGLSLAHDVRRGVCCFW	1.13 ± 0.14
MSLLASLLIMYIPIRYNVE	inactive
CFVFTFGT	1.38 ± 0.082
SYNDSLCLDVQTIYPLHSPS	inactive
FQGSNCP	inactive
CVSMKRN	2.07 ± 0.067
VKSFVSFCSGTLSPLMFRSG	0.535 ± 0.19
LFRFGI	-0.005 ± 0.22
SFERGMSENLFIVGPGEFVG	inactive
CLGNENVELVSTNVVYRYIS	inactive
WVLDQRNSLSKCKLG	inactive

Substance	amyloid nucleation score
YVMHWSVAEVLRSLCVNHVR	inactive
LSTNTERAFTAWNVIGELGD	inactive
FFVVC	inactive
SQVVTVRCPDSSLCEIFSWG	inactive
RNLKN	inactive
ITHFIMCPYYDYQRDGHWIT	inactive
QISEFKDVLLCVCVKISLGR	1.7 ± 0.09
RFDESTRVCV	inactive
RSDENWRMTYWRAGCRVLDV	inactive
ACLLKSYFSRYNEKPTCYVT	inactive
FSRPLPTPESYRW	-0.287 ± 1.3
CNWINLNIRSVRIYHPYSRF	1.54 ± 0.072
LCRGCSLGACGNSGLKYCGW	inactive
RDMYLLLREHGKGTIGKPWG	inactive
IQGVAWVQKAWFSRKAGVQI	inactive
YFTFCDCLGQLMTRGRGCSV	inactive
CGPFGFMCDAVGSAQFDIMM	inactive
LTWKFSATCIGVKT	inactive
PTGMPYNLTWFFWHATMPLL	-0.255 ± 0.33
LSKLPTKMACPLMVRS	0.928 ± 0.24
YMQQSR	inactive
YHCSLQIFVLNSWMSSYKWS	1.86 ± 0.098
SLDLNCQIMLYKSMRCDEE	1.61 ± 0.064
NLVLCN	inactive
RAECSISSIIIYCAGRPSLI	1.07 ± 0.098
RNLVWA	inactive
